Data: patent publication US20220236279A1

Target: human atypical chemokine receptor 3 (ACKR3) (human), P25106
Test: binding competition with CXCL12-AF647, flow cytometry
Conditions: chains peptide; remark: other sources report otherwise

Sequence of human atypical chemokine receptor 3 (ACKR3) (human), P25106 (P25106 whole entry): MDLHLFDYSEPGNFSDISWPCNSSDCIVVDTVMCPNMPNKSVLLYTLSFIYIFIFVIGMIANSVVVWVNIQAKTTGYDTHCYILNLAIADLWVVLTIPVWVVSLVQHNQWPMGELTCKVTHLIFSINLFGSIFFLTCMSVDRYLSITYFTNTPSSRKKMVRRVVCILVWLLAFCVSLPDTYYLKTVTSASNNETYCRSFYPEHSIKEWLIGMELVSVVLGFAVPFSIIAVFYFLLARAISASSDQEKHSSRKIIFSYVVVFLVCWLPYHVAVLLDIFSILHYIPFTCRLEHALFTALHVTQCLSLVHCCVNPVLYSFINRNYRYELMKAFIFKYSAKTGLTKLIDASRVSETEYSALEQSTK

B1: nociceptin, Q13519 130-146 (peptide)
chain: FGGFTGARKSARKLANQ
Binder B1 has an IC50 greater than 10 µM.
